Reference: the supplement of paper PMC9170038

Test system: MS2 coat protein
Experiment: apparent KD of MS2 coat protein; designed switch direction (-1 OFF switch, 1 ON switch): 1; higher = weaker reporter binding
Summary of the method: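 On Illumina chips, designed RNA switches with common flanks were made by stalled E. coli RNA polymerase. Titrations with SNAP-549-labelled MS2 coat protein, doubling from 0.7 or 1.5 nM to 3 µM, were done with no input, with 200 uM small-molecule ligand, or with an oligonucleotide input. Apparent KD is the median per design over clusters, from curve fits of normalised cluster fluorescence.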

[1] = Eterna round: R95, input ligand: FMN 200 uM
[2] = Eterna round: R95, input ligand: microRNA oligo, concentration not stated
[3] = Eterna round: R95, input ligand: none
[4] = input ligand: microRNA oligo, concentration not stated

Sequence | apparent KD of MS2 coat protein [1] | apparent KD of MS2 coat protein [2] | apparent KD of MS2 coat protein [3] | apparent KD of MS2 coat protein (input ligand: FMN 200 uM) | apparent KD of MS2 coat protein [4] | apparent KD of MS2 coat protein (input ligand: none)
ACUUGCUUUUUGCUCAUUUUUUGUCCGUAACAUGAGGAUCACCCAUGUGUAGAUUAUGUGUUGUUUUUGAUACGUGA [JR_SHM208A_Sub068] (puzzle: Sensor for hsa-mir-208a) | 0.0299 µM | 0.0295 µM | 0.0346 µM | – | – | –
ACUUGCUUUUUGCUCGUAUAUUGUCCAUUACAUGAGGAUCACCCAUGUGUGUAUUGUGUAUUGUUUUUGAUACGUGC [JR_SHM208A_Sub071] (puzzle: Sensor for hsa-mir-208a) | 0.243 µM | 0.0244 µM | 0.302 µM | – | – | –
ACUUGCUUUUUGCUCGUAUAUUGUCCGUUACAUGAGGAUCACCCAUGUGUGUAUUGUGUGUUGUUUUUGAUACGUGU [JR_SHM208A_Sub070] (puzzle: Sensor for hsa-mir-208a) | 0.056 µM | 0.0628 µM | 0.0742 µM | – | – | –
AGAAAAGAAAGAAAGGAUAUACAGAAAAGAACAUGAGGAUCACCCAUGUAAGAAGAGGAGGGAGGGUAGAAGGUUCAAGAAAGAA [JR_SS2_Sub017] (puzzle: Same State 2) | 0.021 µM | 0.033 µM | 0.0193 µM | – | – | –
AGAAACAAAGGCUGAAAUAAUACAUGAGGAUCACCCAUGUCACAGGAUAUCCAGAUAAUAUUCGAGGAGAAGGGUGCAGCCAAC [Esanusdiat] (Eterna round: R96, puzzle: Same State NG 3) | – | – | – | 0.0191 µM | 0.0596 µM | 0.0797 µM
AGAAAGAAAACGCAGGAUAUGGAGCAUGAGACAUGAGGAUCACCCAUGUCAAAAGAAAAGAAGAACCAGAAGGGCGGGAAAGAAA [Default title] (puzzle: Same State 2) | 0.0185 µM | 0.0117 µM | 0.0156 µM | – | – | –
AGAAGACAUGAGGAUCACCCAUGUACAUAAUGAGGAGAAUGGGAGGAUAUGCAGAGAGAGAGGGAGCAGAAGGUCCAGUAUGAA [Default title] (Eterna round: R96, puzzle: Same State NG 3) | – | – | – | 0.0444 µM | 0.0516 µM | 0.105 µM
AGAGGAGGAGCAGGAUAUGCGAAGAAGAACGUGGCAGAAGGGUUCAUGCGAUGACAUGAGGAUCACCCAUGUACCGCGCGAGGA [AK SSNG1-V2-10] (Eterna round: R96, puzzle: Same State NG 1) | – | – | – | 0.0644 µM | 0.0339 µM | 0.0626 µM
AGAUAACAUGAGGAUCACCCAUGUCAACUAAGUCGAGGAUAUGGGCAUAUUAUAUUAGAACCAGAAGGCGAAUAGA [Mat - Same State 1 - Mod of UCT - D45] (puzzle: Same State 1) | 0.0126 µM | 0.00403 µM | 0.0279 µM | – | – | –
AGAUCAUGACGAGGAUAUCCGACAUGAGGAUCACCCAUGUAUGUUGGAGGACGCGUACGUCCAAUGGAGAAGGCGUCGUGGUCA [JL SSNG2 1.04] (Eterna round: R96, puzzle: Same State NG 2) | – | – | – | 0.0136 µM | 0.0118 µM | 0.0149 µM
AGAUCAUGACGAGGAUAUGGAACAUGAGGAUCACCCAUGUAUGUUCCAUAACGCGAAUAAAGAAUCCAGAAGGCGUCGUGAUCA [Mat - Same State NG 2 - JL mod - D31] (Eterna round: R96, puzzle: Same State NG 2) | – | – | – | 0.0131 µM | 0.0525 µM | 0.0855 µM
AGAUCAUGACGAGGAUAUGGUACAUGAGGAUCACCCAUGUAUGUAUCAUAACGCGAAUGACGAAUCCAGAAGGCGUCGUGGUCA [JL SSNG2 1.12] (Eterna round: R96, puzzle: Same State NG 2) | – | – | – | 0.00994 µM | 0.0147 µM | 0.0227 µM
AGAUGUUAAUCAGGAUAUGGGCACAUGAGGAUCACCCAUGUAAAGUAGAUACUAUGUGGUCAAGUCUAGAAGGGAUGGCUAACA [SameState NG2 #80] (Eterna round: R96, puzzle: Same State NG 2) | – | – | – | 0.433 µM | 0.282 µM | 0.279 µM
AGAUGUUAAUCAGGAUAUGGGCACAUGAGGAUCACCCAUGUAAAUUCGAUACUAUGUGGAGACGUCUAGAAGGGAUGGCUAACA [SameState NG2 #84] (Eterna round: R96, puzzle: Same State NG 2) | – | – | – | 0.127 µM | 0.0822 µM | 0.137 µM
AGAUGUUAAUCAGGAUAUGGGCACAUGAGGAUCACCCAUGUAAUUUCGAUACUAUGUGGAGACGUCUAGAAGGGAUGGCUAACA [SameState NG2 #85] (Eterna round: R96, puzzle: Same State NG 2) | – | – | – | 0.162 µM | 0.101 µM | 0.134 µM
AGCACGAUUCGAGGAUAUGAGUCACAUGAGGAUCACCCAUGUCUAAUGGAUGGGACGGCCCAACCUCAGAAGGCGAUACCGGCA [Eternabot solution 24] (Eterna round: R96, puzzle: Same State NG 2) | – | – | – | 0.392 µM | 0.307 µM | 0.338 µM

Sequence | apparent KD of MS2 coat protein [1] | apparent KD of MS2 coat protein [2] | apparent KD of MS2 coat protein [3] | apparent KD of MS2 coat protein (input ligand: FMN 200 uM) | apparent KD of MS2 coat protein [4] | apparent KD of MS2 coat protein (input ligand: none)
AGCCGAAGCGCAGGAUAUACAUGGAUACAUGAGGAUCACCCAUGUAGCAACACGUGGUAGUGAUUGUAGAAGGGUGCUCGGCGC [Omei SS(NG)2 Cv17] (Eterna round: R96, puzzle: Same State NG 2) | – | – | – | 0.0274 µM | 0.0355 µM | 0.0546 µM
AGCCGAGACUGAGGAUAUAGAAAUCUACAUGAGGAUCACCCAUGUAGCAACACGUGGUAGUGAUUCUAGAAGGCGGCUCGGCGC [Omei SS(NG)2 Cv5] (Eterna round: R96, puzzle: Same State NG 2) | – | – | – | 0.0134 µM | 0.0411 µM | 0.0406 µM
AGCCGAGACUGAGGAUAUAGAUAUCUACAUGAGGAUCACCCAUGUAGCAACACGUGGUAGUGAUUCUAGAAGGCGGCUCGGCGC [Omei SS(NG)2 Cv6] (Eterna round: R96, puzzle: Same State NG 2) | – | – | – | 0.0192 µM | 0.0662 µM | 0.0837 µM
AGCCUGAGUCGAGGAUAUUAUGGAUCCUUUAAUACAUGAGGAUCACCCAUGUAAUUAAUUAUACAUGAGAAGGUGACUCAGGCA [SSNG2/11-B1] (Eterna round: R96, puzzle: Same State NG 2) | – | – | – | – | 0.186 µM | –
AGCCUGGAAGUCCAGGCAAAACAUGAGGAUCACCCAUGUACAUAGGAUAUCGUCUGAAAAGCAGACGAGAAGGGUGACCGAACU [Titedi] (Eterna round: R96, puzzle: Same State NG 3) | – | – | – | 0.687 µM | 0.0968 µM | 0.192 µM
AGCGAGAUAGGCAAGGAUAUGCUGAGGUGCACAUGAGGAUCACCCAUGUCAGUGGCGAAAGCGAAGCAGAAGGUGCAUUCUCUUU [ak fifth] (puzzle: Same State 2) | 0.0271 µM | 0.19 µM | 0.332 µM | – | – | –
AGCGAGAUAGGCGAGGAUAUGCUUUUUUGCACAUGAGGAUCACCCAUGUCUUUGUUUUUUGUUUUGCAGAAGGCGCAUUCUCUUU [ak unbound state multiloop] (Eterna round: R96, puzzle: Same State 2) | – | – | – | 0.0461 µM | 0.0158 µM | 0.0261 µM
AGCGAGAUAGGCGAGGAUAUGCUUUUUUGCACAUGAGGAUCACCCAUGUCUUUGUUUUUUGUUUUGCAGAAGGCGCAUUCUCUUU [ak unbound state multiloop] (puzzle: Same State 2) | 0.0327 µM | 0.0143 µM | 0.0127 µM | – | – | –
AGCUAAAACGAAGGAUAUACAGACAUGAGGAUCACCCAUGUAUACAUGAUUUAUUGUGAUCACAUGUAGAAGGUCGUACUAACA [SameState NG2 #20] (Eterna round: R96, puzzle: Same State NG 2) | – | – | – | 0.19 µM | 0.649 µM | 0.681 µM
AGCUAAAACGAAGGAUAUACUGACAUGAGGAUCACCCAUGUAUACAUGAUUUAUUGUGAUCACAUGUAGAAGGUCGUACUAACA [SameState NG2 #21] (Eterna round: R96, puzzle: Same State NG 2) | – | – | – | 0.31 µM | 0.269 µM | 0.413 µM
AGCUAGUACCGAGGAUAUACAUACAUGAGGAUCACCCAUGUAUACAUGAAUUAUUGAGACUACAUGUAGAAGGCGGUACUAGCA [JL SSNG2 1.20] (Eterna round: R96, puzzle: Same State NG 2) | – | – | – | 0.0166 µM | 0.0357 µM | 0.0649 µM
AGCUAGUACCGAGGAUAUACGUACAUGAGGAUCACCCAUGUAUACAUGAAUUAAUGAGACUACAUGUAGAAGGCGGUACUAGCA [Mat - Same State NG 2 - JL mod - D49] (Eterna round: R96, puzzle: Same State NG 2) | – | – | – | – | 0.0343 µM | –
AGCUAUCGAAAACGAUAGCAAAAGCAUGUACAUGAGGAUCACCCAUGUUAUGUACAAGCUUUUUGCUCGUCUUAAAA [Zipper 23 - 11] (puzzle: Sensor for hsa-mir-208a) | 0.326 µM | 0.012 µM | 0.308 µM | – | – | –
AGCUAUCGAAAACGAUAGCAGAAGCAUGUACAUGAGGAUCACCCAUGUCAUGUACAAGCUUUUUGCUCGUCUUAAAA [Zipper 23 - 1] (puzzle: Sensor for hsa-mir-208a) | 0.36 µM | 0.0178 µM | 0.703 µM | – | – | –
AGCUAUCGAAAACGAUAGCAUAAGCUUGGACAUGAGGAUCACCCAUGUCAUGUACAAGCUUUUUGCUCGUCUUAAAA [JL zipper 29] (Eterna round: R96, puzzle: Sensor for hsa-mir-208a) | – | – | – | 0.0323 µM | 0.0119 µM | 0.0345 µM
